Literature values in paper PMC8256087.

Molecular target: FtsY (Escherichia coli) (UniProt P10121)
Sequence (P10121 2-497): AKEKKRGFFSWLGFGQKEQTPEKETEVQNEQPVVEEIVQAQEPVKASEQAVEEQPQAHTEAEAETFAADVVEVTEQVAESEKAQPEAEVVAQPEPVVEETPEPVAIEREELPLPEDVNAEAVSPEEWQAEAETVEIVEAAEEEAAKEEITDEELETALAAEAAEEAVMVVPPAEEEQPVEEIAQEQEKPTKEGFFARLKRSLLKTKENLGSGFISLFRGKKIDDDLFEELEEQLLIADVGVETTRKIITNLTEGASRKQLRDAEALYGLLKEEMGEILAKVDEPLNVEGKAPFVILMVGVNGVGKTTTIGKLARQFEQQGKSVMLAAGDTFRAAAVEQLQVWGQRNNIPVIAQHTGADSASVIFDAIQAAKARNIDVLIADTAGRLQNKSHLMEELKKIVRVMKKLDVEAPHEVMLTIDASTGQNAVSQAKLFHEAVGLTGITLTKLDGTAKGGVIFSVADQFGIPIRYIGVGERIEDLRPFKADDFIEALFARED

SecYEG translocon, sequence (P0AGA2 whole entry): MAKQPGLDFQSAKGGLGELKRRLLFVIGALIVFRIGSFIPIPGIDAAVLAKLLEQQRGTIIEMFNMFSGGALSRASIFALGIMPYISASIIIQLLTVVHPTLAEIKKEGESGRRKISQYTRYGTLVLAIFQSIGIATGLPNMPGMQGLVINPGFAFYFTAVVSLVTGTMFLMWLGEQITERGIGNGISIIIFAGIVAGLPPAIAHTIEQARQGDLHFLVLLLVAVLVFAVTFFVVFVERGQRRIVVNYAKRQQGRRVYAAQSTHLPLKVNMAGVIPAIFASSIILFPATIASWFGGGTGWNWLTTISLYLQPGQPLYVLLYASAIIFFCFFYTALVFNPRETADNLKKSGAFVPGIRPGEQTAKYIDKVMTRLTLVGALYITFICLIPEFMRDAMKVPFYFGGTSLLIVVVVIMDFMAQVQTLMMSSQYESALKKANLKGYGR
SecYEG translocon, sequence (P0AG96 whole entry, further chain): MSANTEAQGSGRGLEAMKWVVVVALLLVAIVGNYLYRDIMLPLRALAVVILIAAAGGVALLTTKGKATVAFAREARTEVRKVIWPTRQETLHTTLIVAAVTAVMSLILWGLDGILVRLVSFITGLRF
SecYEG translocon, sequence (P0AG99 whole entry, further chain): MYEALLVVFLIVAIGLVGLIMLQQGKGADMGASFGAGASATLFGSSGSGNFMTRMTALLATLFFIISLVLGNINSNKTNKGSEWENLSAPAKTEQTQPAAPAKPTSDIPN

Substance: SecYEG translocon (from UniProt P0AGA2)
- Kd: 200 nM
